In patent US20160272689A1 one finds fold increase of binding in the presence of protamine data, which are given here for one substance.

The target in the test is Fc-tagged extracellular domain of mouse RPTPσ (wild type) (mouse) (UniProt B0V2N1). Description: ELISA: Fc-tagged RPTPσ (2 µg/ml) on protein G plates; biotinylated aggrecan 5 µg/ml preincubated with protamine 0-5 µg/ml; streptavidin-HRP, A450. (In an ELISA, binding on a coated surface is turned into a signal by an enzyme label.)
Fc-tagged extracellular domain of mouse RPTPσ (wild type) (mouse), sequence (B0V2N1 30-1257): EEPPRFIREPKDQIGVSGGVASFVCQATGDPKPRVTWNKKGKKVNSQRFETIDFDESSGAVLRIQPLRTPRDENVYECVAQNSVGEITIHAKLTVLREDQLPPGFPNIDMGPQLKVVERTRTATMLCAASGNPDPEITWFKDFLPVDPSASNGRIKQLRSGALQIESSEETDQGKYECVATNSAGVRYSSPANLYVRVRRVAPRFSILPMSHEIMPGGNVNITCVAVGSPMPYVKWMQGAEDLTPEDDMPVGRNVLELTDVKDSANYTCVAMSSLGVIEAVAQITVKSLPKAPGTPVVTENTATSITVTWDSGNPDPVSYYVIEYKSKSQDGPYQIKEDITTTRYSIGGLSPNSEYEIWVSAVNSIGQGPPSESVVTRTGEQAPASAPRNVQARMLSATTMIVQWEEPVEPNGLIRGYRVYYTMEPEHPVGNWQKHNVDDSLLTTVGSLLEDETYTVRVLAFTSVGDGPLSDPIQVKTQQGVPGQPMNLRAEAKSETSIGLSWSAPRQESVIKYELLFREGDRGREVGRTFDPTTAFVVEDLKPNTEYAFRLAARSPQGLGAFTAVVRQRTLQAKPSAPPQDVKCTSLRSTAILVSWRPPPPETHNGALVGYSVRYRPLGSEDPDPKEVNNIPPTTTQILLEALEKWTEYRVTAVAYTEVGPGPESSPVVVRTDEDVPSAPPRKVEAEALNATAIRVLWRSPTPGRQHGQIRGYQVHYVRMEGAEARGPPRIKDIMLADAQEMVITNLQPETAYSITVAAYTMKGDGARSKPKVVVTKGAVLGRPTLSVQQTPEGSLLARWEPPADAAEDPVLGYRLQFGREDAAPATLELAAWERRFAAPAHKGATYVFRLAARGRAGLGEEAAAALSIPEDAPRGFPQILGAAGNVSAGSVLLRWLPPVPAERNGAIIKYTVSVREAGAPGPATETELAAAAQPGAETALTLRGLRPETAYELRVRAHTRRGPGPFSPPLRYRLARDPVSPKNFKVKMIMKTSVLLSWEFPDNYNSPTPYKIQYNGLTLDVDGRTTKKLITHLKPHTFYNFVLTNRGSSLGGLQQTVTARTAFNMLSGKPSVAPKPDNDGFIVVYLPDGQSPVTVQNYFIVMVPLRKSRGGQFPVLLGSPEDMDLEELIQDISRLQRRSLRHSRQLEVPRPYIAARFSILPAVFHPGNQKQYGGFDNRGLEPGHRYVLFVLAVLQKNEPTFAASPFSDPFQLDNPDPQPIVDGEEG

biotinylated bovine aggrecan, P13608 17-2364 (ligand; biotinylated (sites not stated); natural chondroitin sulphate side chains of the proteoglycan), sequence (P13608 17-2364 limits assumed): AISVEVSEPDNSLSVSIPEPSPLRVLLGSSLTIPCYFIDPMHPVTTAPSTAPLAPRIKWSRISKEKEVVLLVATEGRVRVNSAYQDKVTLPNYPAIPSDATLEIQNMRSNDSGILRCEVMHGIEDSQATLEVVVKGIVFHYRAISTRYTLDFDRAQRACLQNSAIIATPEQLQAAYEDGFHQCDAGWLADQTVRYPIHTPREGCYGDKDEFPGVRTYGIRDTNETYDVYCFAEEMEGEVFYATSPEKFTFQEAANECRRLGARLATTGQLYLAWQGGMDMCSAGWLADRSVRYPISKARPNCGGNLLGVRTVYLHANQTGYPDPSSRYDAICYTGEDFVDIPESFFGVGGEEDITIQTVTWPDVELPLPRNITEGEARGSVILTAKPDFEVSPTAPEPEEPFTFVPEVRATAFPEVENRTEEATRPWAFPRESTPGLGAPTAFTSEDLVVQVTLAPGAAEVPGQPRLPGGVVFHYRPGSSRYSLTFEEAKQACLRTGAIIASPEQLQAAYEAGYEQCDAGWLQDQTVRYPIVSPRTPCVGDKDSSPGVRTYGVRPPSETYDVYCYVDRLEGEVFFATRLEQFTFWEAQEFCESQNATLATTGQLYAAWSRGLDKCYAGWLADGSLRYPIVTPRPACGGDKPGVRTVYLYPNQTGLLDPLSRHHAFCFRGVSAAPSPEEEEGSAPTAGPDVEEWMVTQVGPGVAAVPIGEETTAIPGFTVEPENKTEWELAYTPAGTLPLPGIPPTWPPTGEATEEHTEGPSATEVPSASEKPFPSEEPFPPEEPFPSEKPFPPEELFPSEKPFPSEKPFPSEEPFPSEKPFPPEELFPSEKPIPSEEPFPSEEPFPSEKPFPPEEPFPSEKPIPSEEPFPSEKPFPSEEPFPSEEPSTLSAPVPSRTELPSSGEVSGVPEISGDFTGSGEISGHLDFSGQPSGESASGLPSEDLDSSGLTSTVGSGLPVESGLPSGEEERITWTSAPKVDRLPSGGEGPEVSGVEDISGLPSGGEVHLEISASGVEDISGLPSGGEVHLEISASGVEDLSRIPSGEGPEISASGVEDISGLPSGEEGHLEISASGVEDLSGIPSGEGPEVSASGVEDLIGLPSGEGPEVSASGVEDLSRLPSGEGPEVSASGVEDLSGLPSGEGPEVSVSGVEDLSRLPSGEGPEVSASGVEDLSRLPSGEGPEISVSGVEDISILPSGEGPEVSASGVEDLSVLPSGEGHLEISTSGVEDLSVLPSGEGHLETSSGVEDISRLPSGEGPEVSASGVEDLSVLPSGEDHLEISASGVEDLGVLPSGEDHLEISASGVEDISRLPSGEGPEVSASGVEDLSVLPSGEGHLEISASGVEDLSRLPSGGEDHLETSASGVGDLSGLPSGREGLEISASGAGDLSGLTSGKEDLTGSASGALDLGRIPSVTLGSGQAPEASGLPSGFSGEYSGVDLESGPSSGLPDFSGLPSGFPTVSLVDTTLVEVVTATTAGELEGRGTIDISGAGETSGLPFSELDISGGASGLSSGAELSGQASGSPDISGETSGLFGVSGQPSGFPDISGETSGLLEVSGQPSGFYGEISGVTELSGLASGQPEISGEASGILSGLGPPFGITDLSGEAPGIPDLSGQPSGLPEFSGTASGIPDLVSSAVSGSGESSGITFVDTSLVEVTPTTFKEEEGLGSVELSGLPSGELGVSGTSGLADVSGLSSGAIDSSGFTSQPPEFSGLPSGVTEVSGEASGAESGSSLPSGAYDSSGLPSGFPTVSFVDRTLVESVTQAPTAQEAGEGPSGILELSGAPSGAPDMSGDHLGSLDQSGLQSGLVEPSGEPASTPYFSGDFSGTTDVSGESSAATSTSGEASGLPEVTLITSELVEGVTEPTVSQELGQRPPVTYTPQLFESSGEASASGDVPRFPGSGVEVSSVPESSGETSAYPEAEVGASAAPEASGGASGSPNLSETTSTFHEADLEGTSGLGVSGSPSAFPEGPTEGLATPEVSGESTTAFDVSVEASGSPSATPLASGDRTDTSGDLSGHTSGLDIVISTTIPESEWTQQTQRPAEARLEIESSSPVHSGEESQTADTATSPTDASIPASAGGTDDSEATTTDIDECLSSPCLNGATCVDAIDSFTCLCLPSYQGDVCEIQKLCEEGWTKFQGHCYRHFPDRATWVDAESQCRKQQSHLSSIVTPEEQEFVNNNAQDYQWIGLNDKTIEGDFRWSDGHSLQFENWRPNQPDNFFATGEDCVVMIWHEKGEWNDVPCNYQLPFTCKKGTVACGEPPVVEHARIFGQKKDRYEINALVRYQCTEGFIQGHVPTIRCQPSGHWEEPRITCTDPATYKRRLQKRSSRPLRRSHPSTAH

Consider “biotinylated bovine aggrecan, P13608 17-2364 (ligand; biotinylated (sites not stated); natural chondroitin sulphate side chains of the proteoglycan)”, for which the fold increase of binding in the presence of protamine was 2 fold.
